These results are taken from the DeepSol protein solubility set.

This data set is described as follows: soluble on expression in E. coli; label from the status in PepcDB or PDB records.
Take “MGSDKIHHHHHHMSILNLFRKNKNKNNIDFNEKSNKSKQTSNNTMTPSQEYNSISTHNVEVKNEINKVLNVSYNDTTNLYELEKQAREKSDALYDIHTNSINKFNPQNNILETDTKPLTSIEKSFLKYIIGENIYEPYIATYWTYEYNINYSYLISKFFNMDYLKISNYIEDLTKLTVSELKEILKSNNIKSTGKKAELIERIEKEISCKDLSNFFNSSNKYYALTDKGKELLKDVRKSVTKNTDLEDQCLELIYIDKYEEAYDLICKYESSKNIQRGININWENHKITPMKIESYKAIKELDINLKDTLLDNIIKSSYILCDMLGNNSKTSILVKRLAGEKIDNIEINNAINSINDVIYNHSTITYNANDSINNKNLHYMDIVKNNKSIPFEVNNKNYNFKINENEIYFFNILKIKMYENELKNNFVFDRMSDGAFNVFDTSDNFIGKVKLQGRKKWIMYMKNEFGSEHIYGELIHLIDGIDAWIKYSKEYLK”: the “soluble on expression in E. coli” value is recorded as “not soluble”.
With “DPLQILGQLTGQLEQQQTAPSGTSAKAPPANDQQAEFVASILGDTEDTWKALFAQAGKQYRDPKLVLFSGQVNSACGFASAAVGPFYCPADQRVYLDMSFFREMETRFAAAGDFAQAYVIAHEIGHHVQTLLGVSAKVDAARRAGQRMEGDNGLLVRQELQADCLAGVWAYQAQKRLNWLEPGDVEEALNAANAIGDDRLQQQGRGRVVPDSFTHGTSAQRVRWFKIGFAEGEVNRCDTF” the entry was “not soluble”.
Take “MKTLYDKLWSDHVVHAESDDPNGMVILYIDRHLVHEVTSPQAFESLKLAGRKPWRTGSILAVADHNVPTTDRSSGISDPVSRLQVETLDQNCEEFAITEFRMNDERQGIVHVIGPEQGATLPGMTVVCGDSHTSTHGAFACLAFGIGTSEVEHVLATQCLVARKSKTMLVRVEGDLPPGVTAKDIALAVIGEIGTAGGTGYAIEFAGSAIRSLSMEGRMTLCNMAIEAGARAGMVGADEVTIDYIKGRPFAPQGALWDQAVAYWRTLKSDEDAVFDRMVELKAVNIKPQVTWGTSPEMVTTVDGYVPDPADISDPTKRHDVEHALGYMGLKPKMPIQEITLDKVFIGSCTNSRIEDLRAAAEIVKGKRIAPNIRLAMVVPGSGLVKSMAEKEGLDKIFLSAGFEWREPGCSMCLAMNDDRLLPGERCASTSNRNFEGRQGPGGRTHLVSPAMAAAAAIAGHFVDVRSFIR”: the “soluble on expression in E. coli” value is listed as “not soluble”.
For the sequence “MGSDKIHHHHHHMYKINIIRSDSVYKNILKAPINDRDSIFTKEILVPFKKKFEVQHMPIYNDDKQTMSAIQFLDAFQISPKDLRMSDQMSIQYLNNDFWSNCEKYLKVAIDQFSNYSISSQVSNYHFTVLLGDSQKPLMYLNKNRGGDGGIPGYIMIYLVPSTSTINSMKSLIAHEVNHNMRYQYIDWDGGSLIELIIAEGLAENYVESLYGKAHIGPWVTNTNWSRDNVKIKNTIYNHLHLKHIFESMPYLYGDDINKLQGRPIVGLSHAAGYACGYHLVKYFLQKTNIPIEVATTLPAQKIINEVTEFWHTHTL”, the “soluble on expression in E. coli” value is given as “not soluble”.
Next, “MKNQLIDRLTRYTTIDTQSDPKSTTTPSTEKQWDLLHLLEKELQQLGLPTDLDENGYLFATLESNIDVDVPTVGFLAHVDTSPDFNASNVKPQIIENYDGKPYKLGNTKRVLDPKVFPELNSLVGHTLMVTDGTSLLGADDKAGIVEIMEAICYLQEHPEIKHGTIRIGFTPDEEIGRGPHKFDVDRFNADFAYTMDGSQYGELQYESFNAAEAVITCHGVNVHPGSAKNAMVNAIRLGEQFDSLLPDSEVPERTEGYEGFYHLMNFEGTVEKATLQYIIRDHDKKQFELRKKRILEIRDDINAHFENYPVKVDISDQYFNMAEKILPLPHIIDIPKRVFAKLDIPANTEPIRGGTDGSQLSFMGLPTPNIFTGCGNFHGPYEYASIDVMEKAVQVIIGIVEDIAENH”: “not soluble”.
With “MKELLKELVEKNRKFTADGNVANYIPELDKADKNALGIYVTTLDGQEFFAGDYNTKFTIQSISKIISLMLAILDNGEEYVFSKVGMEPSGDPFNSIRKLETSSRKKPYNPMINAGAIAVASMIKGKDDREKFSRLLNFAKLITEDDSLDLNYKIYIGESDTGFRNYSMAYFLKGEGIIEGNVNEALTVYFKQCSIEGTAKTISTLGKFLANDGVLSNGERILTTRMAKIIKTLMVTCGMYDSSGEFAVRVGIPSKSGVGGGICSVVPGKMGIGVYGPSLDKKGNSLAGGHLLEDLSAELSLNIFLEHHHHHH” the entry was “not soluble”.
